B1: Gαi/q chimera (other)
chain: MGCTLSAEDKAAVERSKMIDRNLREDGERSRRELKLLLLGTGESGKSTFIKQMRIIHGSGYSDEDKRGFTKLVYQNIFTAMQAMIRAMDTLKIPYKYEHNKAHAQLVREVDVEKVSAFENPYVDAIKSLWNDPGIQECYDRRREYQLSDSTKYYLNDLDRVADPSYLPTQQDVLRVRVPTTGIIEYPFDLQSVIFRMVDVGGQRSERRKWIHCFENVTSIMFLVALSEYDQVLVESDNENRMEESKALFRTIITYPWFQNSSVILFLNKKDLLEEKIMYSHLVDYFPEYDGPQRDAQAAREFILKMFVDLNPDSDKIIYSHFTCATDTENIRFVFAAVKDTILQLNLKEYNLV
modifications: biotinylated (bead-bound in FCPIA)

Key:
Assay in all cases: flow cytometry protein interaction assay
[1] = molecular target: T1, RhoA (UniProt P61586 1-193, biotinylated where bead-bound; Alexa Fluor 532 label where AF-labeled)
[2] = molecular target: B1
[3] = molecular target: p63RhoGEF DH/PH 2A alanine insertion mutant (human, UniProt Q86VW2-1 149-502, 2A: 2 alanines inserted after Thr338)
[4] = molecular target: p63RhoGEF DH/PH 3A alanine insertion mutant (human, UniProt Q86VW2-1 149-502, 3A: 3 alanines inserted after Thr338)
[5] = molecular target: p63RhoGEF DH/PH 4A alanine insertion mutant (human, UniProt Q86VW2-1 149-502, 4A: 4 alanines inserted after Thr338)
[6] = molecular target: p63RhoGEF DH/PH 5A alanine insertion mutant (human, UniProt Q86VW2-1 149-502, 5A: 5 alanines inserted after Thr338)
[7] = molecular target: p63RhoGEF DH/PH 6A alanine insertion mutant (human, UniProt Q86VW2-1 149-502, 6A: 6 alanines inserted after Thr338)
[8] = molecular target: p63RhoGEF DH/PH 7A alanine insertion mutant (human, UniProt Q86VW2-1 149-502, 7A: 7 alanines inserted after Thr338)
[9] = molecular target: p63RhoGEF DH/PH 1A alanine insertion mutant (human, UniProt Q86VW2-1 149-502, 1A: 1 alanine inserted after Thr338)
[10] = molecular target: T1, RhoA; remark: listed apart in the source

T1 sequence (P61586 whole entry): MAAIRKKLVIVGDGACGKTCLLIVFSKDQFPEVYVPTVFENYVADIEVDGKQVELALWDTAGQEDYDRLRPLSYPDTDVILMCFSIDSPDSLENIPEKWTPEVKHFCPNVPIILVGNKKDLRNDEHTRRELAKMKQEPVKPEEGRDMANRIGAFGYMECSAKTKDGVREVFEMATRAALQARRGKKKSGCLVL

Row | Ki [1] [nM] | Ki [2] [nM] | Binder | further results
1 | 300 |  | p63RhoGEF DH domain (residues 149-338) (domain or fragment) not shown | 
2 |  | 48 | p63RhoGEF DH/PH-Δ(397-402) (domain or fragment) not shown | 
3 |  |  | B1 | binding result [3]: binds; binding result [4]: binds; binding result [5]: binds; binding result [6]: binds; binding result [7]: binds; binding result [8]: binds; binding result [9]: binds
4 |  |  | Gαi/q bound to p63RhoGEF DH/PH wild type (complex, biotinylated (bead-bound)) chain 1: MGCTLSAEDKAAVERSKMIDRNLREDGERSRRELKLLLLGTGESGKSTFIKQMRIIHGSGYSDEDKRGFTKLVYQNIFTAMQAMIRAMDTLKIPYKYEHNKAHAQLVREVDVEKVSAFENPYVDAIKSLWNDPGIQECYDRRREYQLSDSTKYYLNDLDRVADPSYLPTQQDVLRVRVPTTGIIEYPFDLQSVIFRMVDVGGQRSERRKWIHCFENVTSIMFLVALSEYDQVLVESDNENRMEESKALFRTIITYPWFQNSSVILFLNKKDLLEEKIMYSHLVDYFPEYDGPQRDAQAAREFILKMFVDLNPDSDKIIYSHFTCATDTENIRFVFAAVKDTILQLNLKEYNLV chain 2: not shown | Kd [10]: 17 nM
5 | 1200 | 670 | p63RhoGEF DH/PH-G340I (domain or fragment) not shown | 
6 | 190 | 75 | p63RhoGEF DH/PH-R341A (domain or fragment, Alexa Fluor 532 label in direct binding to RhoA; unlabeled as competitor) not shown | 
7 |  | 68 | p63RhoGEF DH/PH-M336S (domain or fragment) not shown | 
8 |  | 40 | p63RhoGEF DH/PH-P330L (domain or fragment) not shown | 
9 | 94 | 120 | p63RhoGEF DH/PH-R341E (domain or fragment, Alexa Fluor 532 label in direct binding to RhoA; unlabeled as competitor) not shown | 

— paper PMC2862694 (Cellular signalling, 2010)
